Reference: IntAct's records for PubMed 17525340

B1: BRCA1-A complex subunit Abraxas 1 (Homo sapiens), Q6UWZ7 (parent)
chain: MEGESTSAVLSGFVLGALAFQHLNTDSDTEGFLLGEVKGEAKNSITDSQMDDVEVVYTIDIQKYIPCYQLFSFYNSSGEVNEQALKKILSNVKKNVVGWYKFRRHSDQIMTFRERLLHKNLQEHFSNQDLVFLLLTPSIITESCSTHRLEHSLYKPQKGLFHRVPLVVANLGMSEQLGYKTVSGSCMSTGFSRAVQTHSSKFFEEDGSLKEVHKINEMYASLQEELKSICKKVEDSEQAVDKLVKDVNRLKREIEKRRGAQIQAAREKNIQKDPQENIFLCQALRTFFPNSEFLHSCVMSLKNRHVSKSSCNYNHHLDVVDNLTLMVEHTDIPEASPASTPQIIKHKALDLDDRWQFKRSRLLDTQDKRSKADTGSSNQDKASKMSSPETDEEIEKMKGFGEYSRSPTF
partner: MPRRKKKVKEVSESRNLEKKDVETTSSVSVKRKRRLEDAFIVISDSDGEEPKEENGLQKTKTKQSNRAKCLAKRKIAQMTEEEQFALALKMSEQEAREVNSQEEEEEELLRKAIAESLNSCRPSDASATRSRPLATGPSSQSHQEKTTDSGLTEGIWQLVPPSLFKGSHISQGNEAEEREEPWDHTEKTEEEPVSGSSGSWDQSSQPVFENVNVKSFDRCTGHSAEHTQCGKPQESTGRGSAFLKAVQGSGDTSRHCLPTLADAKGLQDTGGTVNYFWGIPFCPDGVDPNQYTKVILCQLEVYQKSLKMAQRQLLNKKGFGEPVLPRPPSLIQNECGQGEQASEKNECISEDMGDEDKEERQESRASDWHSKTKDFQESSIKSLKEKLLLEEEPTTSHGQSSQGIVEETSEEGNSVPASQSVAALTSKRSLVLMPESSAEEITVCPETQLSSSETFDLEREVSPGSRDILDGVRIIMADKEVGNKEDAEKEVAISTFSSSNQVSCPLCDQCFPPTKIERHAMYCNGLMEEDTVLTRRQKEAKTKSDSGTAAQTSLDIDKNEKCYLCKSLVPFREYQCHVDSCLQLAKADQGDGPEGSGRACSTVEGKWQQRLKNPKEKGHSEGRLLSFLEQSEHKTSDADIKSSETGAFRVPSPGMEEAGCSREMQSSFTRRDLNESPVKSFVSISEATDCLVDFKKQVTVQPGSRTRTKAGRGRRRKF
B2: BRCA1-A complex subunit Abraxas 1 (Homo sapiens), Q6UWZ7 (parent)
chain: B1 chain

Variants of: B1
Details: with uimc1_human UIMC1, Q96RL1

Variant | effect of a mutation on the interaction
MEGESTSAVLSGFVLGALAFQHLNTDSDTEGFLLGEVKGEAKNSITDSQMDDVEVVYTIDIQKYIPCYQLFSFYNSSGEVNEQALKKILSNVKKNVVGWYKFRRHSDQIMTFRERLLHKNLQEHFSNQDLVFLLLTPSIITESCSTHRLEHSLYKPQKGLFHRVPLVVANLGMSEQLGYKTVSGSCMSTGFSRAVQTHSSKFFEEDGSLKEVHKINEMYASLQEELKSICKKVEDSEQAVDKLVKDVNRLKREIEKRRGAQIQAAREKNIQKDPQENIFLCQALRTFFPNSEFLHSCVMSLKNRHVSKSSCNYNHHLDVVDNLTLMVEHTDIPEASPASTPQIIKHKALDLDDRWQFKRSRLLDTQDKRSKADTGSSNQDKASKMSSPETDEEIEKMKGFGEYSRAPTF [S406A] | disrupting interaction

Variants of: B2
Details: with brca1_human BRCA1, P38398
Chain of brca1_human BRCA1, P38398 (P38398 whole entry, looked up): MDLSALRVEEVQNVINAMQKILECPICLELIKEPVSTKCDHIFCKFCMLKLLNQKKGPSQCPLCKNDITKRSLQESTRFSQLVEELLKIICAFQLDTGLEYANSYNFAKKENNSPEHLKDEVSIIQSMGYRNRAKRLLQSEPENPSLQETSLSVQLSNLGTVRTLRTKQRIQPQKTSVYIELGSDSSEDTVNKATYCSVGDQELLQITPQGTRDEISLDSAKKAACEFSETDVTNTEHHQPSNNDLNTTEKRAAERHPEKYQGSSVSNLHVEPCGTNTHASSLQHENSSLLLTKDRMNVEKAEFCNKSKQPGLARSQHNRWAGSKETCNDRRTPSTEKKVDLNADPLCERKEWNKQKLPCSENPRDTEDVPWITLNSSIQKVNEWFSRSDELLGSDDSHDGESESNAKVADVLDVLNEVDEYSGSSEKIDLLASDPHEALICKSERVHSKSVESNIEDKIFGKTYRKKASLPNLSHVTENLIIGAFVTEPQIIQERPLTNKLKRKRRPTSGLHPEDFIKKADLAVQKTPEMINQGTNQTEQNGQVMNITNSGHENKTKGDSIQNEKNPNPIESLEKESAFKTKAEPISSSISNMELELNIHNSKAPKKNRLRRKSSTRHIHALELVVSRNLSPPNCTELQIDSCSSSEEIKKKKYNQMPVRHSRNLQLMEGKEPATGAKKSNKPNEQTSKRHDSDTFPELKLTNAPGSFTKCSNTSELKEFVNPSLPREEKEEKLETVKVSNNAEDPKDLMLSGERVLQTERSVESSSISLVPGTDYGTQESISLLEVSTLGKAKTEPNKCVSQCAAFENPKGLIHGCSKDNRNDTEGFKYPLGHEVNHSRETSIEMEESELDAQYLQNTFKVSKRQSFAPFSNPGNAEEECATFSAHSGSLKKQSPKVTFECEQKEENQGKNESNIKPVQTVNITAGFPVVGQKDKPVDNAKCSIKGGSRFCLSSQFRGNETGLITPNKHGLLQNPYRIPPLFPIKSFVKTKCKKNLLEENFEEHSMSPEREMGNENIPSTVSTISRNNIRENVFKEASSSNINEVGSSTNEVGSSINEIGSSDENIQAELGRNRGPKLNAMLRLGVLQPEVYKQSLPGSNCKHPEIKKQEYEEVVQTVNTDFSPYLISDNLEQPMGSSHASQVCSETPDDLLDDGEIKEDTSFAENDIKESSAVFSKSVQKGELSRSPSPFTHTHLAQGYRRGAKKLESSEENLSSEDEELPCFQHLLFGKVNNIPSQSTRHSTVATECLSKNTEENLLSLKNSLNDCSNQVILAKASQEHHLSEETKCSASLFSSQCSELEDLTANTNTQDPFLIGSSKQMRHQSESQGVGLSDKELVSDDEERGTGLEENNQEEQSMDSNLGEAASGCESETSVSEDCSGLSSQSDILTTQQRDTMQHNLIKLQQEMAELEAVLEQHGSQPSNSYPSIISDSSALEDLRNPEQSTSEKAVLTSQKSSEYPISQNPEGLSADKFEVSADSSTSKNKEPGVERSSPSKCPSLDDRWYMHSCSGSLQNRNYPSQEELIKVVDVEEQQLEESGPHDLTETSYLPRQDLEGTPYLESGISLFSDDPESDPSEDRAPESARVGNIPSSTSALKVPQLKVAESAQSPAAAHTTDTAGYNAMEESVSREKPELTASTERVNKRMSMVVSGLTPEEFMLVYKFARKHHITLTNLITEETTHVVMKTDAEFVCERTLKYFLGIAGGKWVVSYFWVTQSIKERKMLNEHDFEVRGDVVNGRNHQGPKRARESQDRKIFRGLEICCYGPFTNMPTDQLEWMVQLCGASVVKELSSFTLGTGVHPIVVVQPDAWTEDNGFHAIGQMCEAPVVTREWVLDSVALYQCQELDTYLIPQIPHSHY

Variant | effect of a mutation on the interaction
MEGESTSAVLSGFVLGALAFQHLNTDSDTEGFLLGEVKGEAKNSITDSQMDDVEVVYTIDIQKYIPCYQLFSFYNSSGEVNEQALKKILSNVKKNVVGWYKFRRHSDQIMTFRERLLHKNLQEHFSNQDLVFLLLTPSIITESCSTHRLEHSLYKPQKGLFHRVPLVVANLGMSEQLGYKTVSGSCMSTGFSRAVQTHSSKFFEEDGSLKEVHKINEMYASLQEELKSICKKVEDSEQAVDKLVKDVNRLKREIEKRRGAQIQAAREKNIQKDPQENIFLCQALRTFFPNSEFLHSCVMSLKNRHVSKSSCNYNHHLDVVDNLTLMVEHTDIPEASPASTPQIIKHKALDLDDRWQFKRSRLLDTQDKRSKADTGSSNQDKASKMSSPETDEEIEKMKGFGEYSRAPTF [S406A] | disrupting interaction

Variants of: B2
Details: with brca1_human BRCA1, P38398
Remark: another data set of the same source

Variant | effect of a mutation on the interaction
MEGESTSAVLSGFVLGALAFQHLNTDSDTEGFLLGEVKGEAKNSITDSQMDDVEVVYTIDIQKYIPCYQLFSFYNSSGEVNEQALKKILSNVKKNVVGWYKFRRHSDQIMTFRERLLHKNLQEHFSNQDLVFLLLTPSIITESCSTHRLEHSLYKPQKGLFHRVPLVVANLGMSEQLGYKTVSGSCMSTGFSRAVQTHSSKFFEEDGSLKEVHKINEMYASLQEELKSICKKVEDSEQAVDKLVKDVNRLKREIEKRRGAQIQAAREKNIQKDPQENIFLCQALRTFFPNSEFLHSCVMSLKNRHVSKSSCNYNHHLDVVDNLTLMVEHTDIPEASPASTPQIIKHKALDLDDRWQFKRSRLLDTQDKRSKADTGSSNQDKASKMSSPETDEEIEKMKGFGEYSRAPTF [S406A] | increasing interaction
